Data taken from US20200347130A1 (JIANGSU HENGRUI MEDICINE, published 2020).
Substitutions are numbered along the chain they refer to. Values belong to the binder of their own block, whether it stands above or below them.

Tests used:
[1] = target: T1, CD96 extracellular region with His tag (CD96-His) (human, UniProt P40200 22-519); experiment: SPR (Biacore), antibody captured, CD96-ECD-His as mobile phase
T1 construct: also called CD96-ECD-His; Bio-CD96-His (biotin-labelled form)
T1 sequence: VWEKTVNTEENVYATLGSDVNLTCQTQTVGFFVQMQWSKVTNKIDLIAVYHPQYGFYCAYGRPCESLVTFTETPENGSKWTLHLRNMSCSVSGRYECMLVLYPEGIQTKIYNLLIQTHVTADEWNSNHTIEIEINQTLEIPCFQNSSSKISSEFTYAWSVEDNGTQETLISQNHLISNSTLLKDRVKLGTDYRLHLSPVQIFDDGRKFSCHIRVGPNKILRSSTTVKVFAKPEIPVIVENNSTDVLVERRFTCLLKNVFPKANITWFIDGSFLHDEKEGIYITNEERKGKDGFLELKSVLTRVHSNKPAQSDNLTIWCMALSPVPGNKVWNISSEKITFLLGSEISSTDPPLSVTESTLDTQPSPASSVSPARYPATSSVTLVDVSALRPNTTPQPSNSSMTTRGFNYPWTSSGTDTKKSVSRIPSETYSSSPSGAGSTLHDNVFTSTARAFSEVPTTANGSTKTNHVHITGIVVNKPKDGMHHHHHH
Excerpt: Protein A biosensor chip was used to capture antibodies to be tested, then CD96 antigen was flowed on the surface of the chip, and real time reaction signal was detected by Biacore to obtain the binding and dissociation curve. After the dissociation of each experimental cycle was completed, the biosensor chip was washed and regenerated with a glycine-hydrochloric acid regeneration solution (pH 1.5).

[2] = target: T2, Full-length human CD96 on CHO-S cells (human, UniProt P40200 22-585); experiment: cell ELISA, fixed CD96-overexpressing CHO-S cells
T2 construct: also called CD96-CHOs; hCD96-CHOs
T2 sequence: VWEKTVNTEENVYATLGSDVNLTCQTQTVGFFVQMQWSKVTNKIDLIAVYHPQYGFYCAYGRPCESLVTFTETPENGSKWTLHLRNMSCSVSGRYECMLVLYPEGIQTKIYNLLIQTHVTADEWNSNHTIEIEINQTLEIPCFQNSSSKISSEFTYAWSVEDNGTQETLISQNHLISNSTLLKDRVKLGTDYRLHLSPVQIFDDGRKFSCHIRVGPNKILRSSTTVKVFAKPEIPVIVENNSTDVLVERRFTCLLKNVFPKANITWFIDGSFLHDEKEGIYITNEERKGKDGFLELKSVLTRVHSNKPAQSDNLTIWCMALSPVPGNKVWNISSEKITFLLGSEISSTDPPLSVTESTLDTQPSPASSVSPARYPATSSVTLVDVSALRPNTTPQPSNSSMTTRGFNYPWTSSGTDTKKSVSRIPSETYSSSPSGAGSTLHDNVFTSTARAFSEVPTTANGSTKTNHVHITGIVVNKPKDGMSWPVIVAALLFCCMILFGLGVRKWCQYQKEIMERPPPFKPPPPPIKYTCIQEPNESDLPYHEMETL
Procedure: The binding capacity of the anti-CD96 antibody was tested by binding experiments of the antibody to human CD96 protein overexpressing CHO-S cells. The full-length CD96 plasmid was transfected into CHO-S cells by electrotransfection, and cells were then screened for two weeks under pressure for the detection of the expression of CD96. After the over-expressing cells were fixed at the bottom of the 96-well plate, the density of the signal after adding the antibody was used to judge the binding activity of the antibody to CD96 overexpressing CHO-S cells. The specific experimental method is as follows:
The cells were seeded at a density of 9×10⁴/100 μL/well in a 96-well plate and cultured overnight. After aspirating the supernatant, the plate was washed once with PBS, subsequently, 100 μl/well immunostaining fixation solution (Biyuntian, P0098) was added and fixed for one hour at room temperature, and the plate was washed three times with PBS. Once the liquid was discarded, 250 μl/well of 5% skim milk (BD, 232100) blocking solution diluted with PBS was added, and the plate was blocked in an incubator at 37° C. for 2.5 hours. After blocking, the blocking solution was discarded, the plate was washed 4 times with PBST buffer (pH 7.4 PBS containing 0.05% tween-20), followed by diluting 50 μl/well of different concentrations of the antibodies (hybridoma purification antibody or humanized antibody) to be tested the plate was incubated in an incubator at 37° C. for 2 hours. After incubation, the plate was wash 4 times with PBST. […] After washing the plate 4 times with PBST, 50 μl/well of TMB chromogenic substrate (KPL, Cat No. 52-00-03) was added, the plate was incubated at room temperature for 10-25 min, followed by adding 50 μl/well of 1M H₂SO₄ to stop the reaction. The absorption value was read at 450 nm with a NOVOStar microplate reader, and the EC50 value of the CD96 antibodies to CD96 overexpressing CHO-S cells was calculated (see FIG. 1 and Table 15).

[3] = target: T1, CD96 extracellular region with His tag …; experiment: ELISA, CD96-His coated
Procedure: The binding capacity of the anti-CD96 antibody was tested by ELISA to determine the binding of the antibody to human CD96 protein. The His-tagged CD96 fusion protein was used to coat the microtiter plate, and the intensity of the signal after adding with the antibody was used for evaluating the binding activity of the antibody and CD96. The specific experimental method is as follows:
CD96-His with the sequence of SEQ ID NO: 4 prepared in Embodiment 1 was diluted to a concentration of 2 μg/ml with PBS buffer (Shanghai Yuanpei Biotechnology Co., Ltd. Cat No. B320), pH 7.4, added to a 96-well microtiter plate (Corning, Cat No. CLS3590-100EA) at a volume of 50 μl/well, and placed in an incubator at 37° C. for 2 hours. After discarding the liquid, 250 μl/well of 5% skim milk (BD, Cat No. 232100) blocking solution diluted with PBS was added, and the plate was incubated at 37° C. for 2.5 hours or at 4° C. overnight (16-18 hours) for blocking. After blocking, the blocking solution was discarded, and the plate was washed 4 times with PBST buffer (pH 7.4 PBS containing 0.05% tween-20). 50 μl/well of different concentrations of the antibodies to be tested (hybridoma purification antibody or humanized antibody) diluted with sample dilution was added, and the plate was incubated in an incubator at 37° C. for 1 hour. […] After washing the plate 4 times with PBST, 50 μl/well of TMB chromogenic substrate (KPL, Cat No. 52-00-03) was added, and the plate was incubated at room temperature for 5-15 minutes, followed by adding 50 μl/well of 1M H₂SO₄ to stop the reaction. The absorption value was read at 450 nm with a NOVOStar microplate reader, and the EC50 value of the binding of CD96 antibody to human CD96 was calculated (see Table 13).

Kd [1]: 13.1 nM | EC50 [2]: 0.016 nM | EC50 [3]: 0.083 nM
B1: h1719-006 (antibody, V domains shown)
VH: EVTLKESGPVLVKPTETLTLTCTVSGFSLSSYGVSWVRQPPGKGLEWLGVIWGDGNTNYHSVLISRLTISKDTSKSQVVLTLTNMDPVDTATYYCAKNNYYGSRYGYPMDYWGQGTTVTVSS
VL: DIQMTQSPSSVSASVGDRVTITCKATQDVGTAVAWYQQKPGKSPKLLIYWASTRHTGVPERFSGSGSGTDFTLTISSLQPEDFATYFCQQYGSSVLTFGGGTKVEIK
notes: also called M719-006

Kd [1]: 14.9 nM | EC50 [2]: 0.02 nM | EC50 [3]: 0.091 nM
B2: h1719-014 (antibody, V domains shown)
VH: B1 VH with N99Y, M109L
VL: B1 VL
notes: Only variable regions are tied to this name; also called M719-014
